The source of these data is US20170283458A1, “COLLAGEN-BINDING SYNTHETIC PEPTIDOGLYCANS FOR WOUND HEALING” (Symic Biomedical, Inc., priority 2009, published 2017).

In one data set the target is T1, collagen (Bos taurus, UniProt P02453+P02465).
T1 construct: purchased Inamed, Freemont, Calif; Nutragen
Description: Fibrillogenesis turbidity assay (absorbance at 313 nm). Conditions: 1:1 collagen:additive molar ratio, vs collagen alone. The format is biochemical. How it is done:
(§1) Gels were made with Nutragen collagen (Inamed, Freemont, Calif.) at a final concentration of 4 mg/mL collagen. Nutragen stock is 6.4 mg/mL in 10 mM HCl. Gel preparation was performed on ice, and fresh samples were made before each test. The collagen solution was adjusted to physiologic pH and salt concentration, by adding appropriate volumes of 10×PBS (phosphate buffered saline), 1×PBS, and 1M NaOH. For most experiments, samples of DS, decorin, DS-SILY, or DS-Dc13 were added at a 10:1 collagen:treatment molar ratio by a final 1×PBS addition (equal volumes across treatments) in which the test samples were dissolved at appropriate concentrations. In this way, samples are constantly kept at pH 7.4 and physiologic salt concentration. Collagen-alone samples received a 1×PBS addition with no sample dissolved. Fibrillogenesis will be induced by incubating neutralized collagen solutions at 37° C. overnight in a humidified chamber to avoid dehydration. Gel solutions with collagen:treatment molar ratios of other than 10:1 were prepared similarly.
Collagen fibrillogenesis was monitored by measuring turbidity related absorbance at 313 nm providing information on rate of fibrillogenesis and fibril diameter. Gel solutions were prepared as described in EXAMPLE 16 (4 mg/mL collagen, 10:1 collagen:treatment, unless otherwise indicated) and 50 uL/well were added at 4° C. to a 384-well plate. The plate was kept at 4° C. for 4 hours before initiating fibril formation. A SpectraMax M5 at 37° C. was used to measure absorbance at 313 nm at 30 s intervals for 6 hours.
A fibrillogenesis assay as described for DS-SILY, EXAMPLE 19, performed with the conjugate DS-Dc13.

Data set [1] concerns Human aortic smooth muscle cells. Description: Collagen remodeling: hydroxyproline content in medium of cell-seeded collagen gels. It counts as cell-based. Conditions: vs collagen alone; cultures up to 30 days. How it is done: Following a method by Grassl, et al. (Grassl, et al., Journal of Biomedical Materials Research 2002, 60, (4), 607-612), which is herein incorporated in its entirety, collagen gels with or without synthetic PG mimics were formed as described in EXAMPLE 16. Human aortic smooth muscle cells (Cascade Biologics, Portland, Oreg.) were seeded within collagen gels by adding 4×10^6 cells/mL to the neutralized collagen solution prior to incubation. The cell-collagen solutions were pipetted into an 8-well Lab-Tek chamber slide and incubated in a humidified 37° C. and 5% CO2 incubator. After gelation, the cell-collagen gels will be covered with 1 mL Medium 231 as prescribed by Cascade. Every 3-4 days, the medium was removed from the samples and the hydroxyproline content measured by a standard hydroxyproline assay (Reddy, 1996).
To measure degraded collagen in the supernatant medium, the sample was lyophilized, the sample hydrolyzed in 2M NaOH at 120° C. for 20 min. After cooling, free hydroxyproline was oxidized by adding chloramine-T (Sigma) and reacting for 25 min at room temperature. Ehrlich's aldehyde reagent (Sigma) was added and allowed to react for 20 min at 65° C. and followed by reading the absorbance at 550 nm on an M-5 spectrophotometer (Molecular Devices). […] Cultures were incubated for up to 30 days and three samples of each treatment measured. […]

For another data set, the target named is T2, collagen type III (Homo sapiens, UniProt P02461).
T2 construct: purchased Millipore
T2 sequence (P02461 154-1221 limits assumed): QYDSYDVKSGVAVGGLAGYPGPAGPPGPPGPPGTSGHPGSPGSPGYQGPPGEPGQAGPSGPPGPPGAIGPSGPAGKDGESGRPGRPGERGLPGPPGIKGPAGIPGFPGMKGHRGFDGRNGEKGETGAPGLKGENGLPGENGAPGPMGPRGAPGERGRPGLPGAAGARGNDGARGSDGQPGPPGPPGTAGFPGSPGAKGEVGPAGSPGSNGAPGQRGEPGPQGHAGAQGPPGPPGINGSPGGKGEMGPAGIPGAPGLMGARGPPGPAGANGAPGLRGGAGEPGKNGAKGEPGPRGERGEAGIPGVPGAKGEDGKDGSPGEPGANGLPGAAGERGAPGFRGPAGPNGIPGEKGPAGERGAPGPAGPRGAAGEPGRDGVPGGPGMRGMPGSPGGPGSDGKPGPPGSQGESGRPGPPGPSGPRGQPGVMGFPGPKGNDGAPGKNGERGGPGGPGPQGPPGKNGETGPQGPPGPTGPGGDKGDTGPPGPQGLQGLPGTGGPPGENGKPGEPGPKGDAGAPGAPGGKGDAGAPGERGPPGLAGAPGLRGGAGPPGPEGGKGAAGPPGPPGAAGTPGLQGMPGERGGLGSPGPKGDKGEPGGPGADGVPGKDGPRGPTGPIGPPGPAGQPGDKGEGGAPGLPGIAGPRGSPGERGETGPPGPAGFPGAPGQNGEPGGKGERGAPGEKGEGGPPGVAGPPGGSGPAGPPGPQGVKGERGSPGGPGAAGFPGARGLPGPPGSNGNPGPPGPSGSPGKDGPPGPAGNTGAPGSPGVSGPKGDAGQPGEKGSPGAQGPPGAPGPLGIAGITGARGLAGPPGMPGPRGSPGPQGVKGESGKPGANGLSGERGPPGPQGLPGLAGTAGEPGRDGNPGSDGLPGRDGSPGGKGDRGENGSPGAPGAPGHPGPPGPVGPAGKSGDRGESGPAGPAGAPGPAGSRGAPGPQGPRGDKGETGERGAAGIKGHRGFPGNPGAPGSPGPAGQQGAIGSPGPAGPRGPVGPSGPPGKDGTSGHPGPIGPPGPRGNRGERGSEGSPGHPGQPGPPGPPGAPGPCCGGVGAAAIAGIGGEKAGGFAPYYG
Description: Viscoelastic characterization of collagen III containing gels. The format is biochemical. Conditions: 1.5 mg/mL collagen (90% collagen III); 1:1 and 5:1 molar ratios. The method, then: Gels containing type III collagen were prepared as in EXAMPLE 16 with the following modifications: treated and untreated gel solutions were prepared using a collagen concentration of 1.5 mg/mL (90% collagen III (Millipore), 10% collagen I), 200 μL samples were pipetted onto 20 mm diameter wettable surfaces of hydrophobic printed slides. These solutions were allowed to gel at 37° C. for 24 hours. Gels were formed from collagen alone, collagen treated with dermatan sulfate (1:1 and 5:1 molar ratio), and collagen treated with the collagen III-binding peptides alone (GSIT and KELN, 5:1 molar ratio) served as controls.

A further data set addresses T3, collagen III (Homo sapiens, UniProt P02461).
T3 construct: purchased Millipore
T3 sequence (P02461 154-1221 limits assumed): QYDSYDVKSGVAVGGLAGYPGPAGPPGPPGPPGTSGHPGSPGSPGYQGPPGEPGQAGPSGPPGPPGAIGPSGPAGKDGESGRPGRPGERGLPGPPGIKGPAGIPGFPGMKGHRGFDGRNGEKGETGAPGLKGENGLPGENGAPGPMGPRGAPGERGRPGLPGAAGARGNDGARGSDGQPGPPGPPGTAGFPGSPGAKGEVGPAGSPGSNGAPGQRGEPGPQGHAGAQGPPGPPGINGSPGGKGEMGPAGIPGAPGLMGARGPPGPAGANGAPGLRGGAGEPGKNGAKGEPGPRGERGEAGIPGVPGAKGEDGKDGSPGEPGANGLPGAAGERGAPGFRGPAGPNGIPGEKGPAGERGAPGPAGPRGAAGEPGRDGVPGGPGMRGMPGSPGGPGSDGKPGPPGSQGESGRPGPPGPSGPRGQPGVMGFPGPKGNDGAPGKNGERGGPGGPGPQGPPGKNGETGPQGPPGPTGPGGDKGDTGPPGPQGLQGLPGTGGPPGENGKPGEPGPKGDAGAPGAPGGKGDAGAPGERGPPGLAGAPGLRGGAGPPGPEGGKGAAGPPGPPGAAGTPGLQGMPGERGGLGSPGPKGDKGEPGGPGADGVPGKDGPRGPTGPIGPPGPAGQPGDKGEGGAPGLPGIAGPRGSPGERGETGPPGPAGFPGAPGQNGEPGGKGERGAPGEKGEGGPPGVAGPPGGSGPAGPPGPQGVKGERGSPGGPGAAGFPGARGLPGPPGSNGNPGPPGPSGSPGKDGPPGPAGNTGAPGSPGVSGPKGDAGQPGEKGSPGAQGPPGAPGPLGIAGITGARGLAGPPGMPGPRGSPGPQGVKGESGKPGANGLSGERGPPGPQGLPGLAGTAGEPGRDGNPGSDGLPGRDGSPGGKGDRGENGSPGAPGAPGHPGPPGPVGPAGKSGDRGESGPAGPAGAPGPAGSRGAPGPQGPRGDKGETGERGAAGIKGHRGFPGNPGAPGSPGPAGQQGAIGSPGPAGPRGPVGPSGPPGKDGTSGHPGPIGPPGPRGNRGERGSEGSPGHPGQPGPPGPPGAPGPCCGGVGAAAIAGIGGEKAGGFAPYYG
Kind of data set: Cryo-SEM measurements on collagen III, void space. It counts as biochemical. Conditions: 1 mg/mL collagen (90% collagen III), 1:1 collagen:peptidoglycan. How it is done: Gels for cryo-SEM were formed, as in EXAMPLE 16, directly on the SEM stage and incubated at 37° C. overnight with the following modifications. The collagen concentration was 1 mg/mL (90% collagen III, 10% collagen I). The collagen:DS ratio was 1:1 and the collagen:peptidoglycan ratio was 1:1. The images were recorded as in EXAMPLE 21. The ratio of void volume to fibril volume was measured using a variation of the method in EXAMPLE 21.

The target in a further data set is T4, collagen I (Bos taurus, UniProt P02453+P02465).
T4 construct: purchased Inamed, Freemont, Calif; Nutragen
T4 sequence (P02453 162-1217 limits assumed): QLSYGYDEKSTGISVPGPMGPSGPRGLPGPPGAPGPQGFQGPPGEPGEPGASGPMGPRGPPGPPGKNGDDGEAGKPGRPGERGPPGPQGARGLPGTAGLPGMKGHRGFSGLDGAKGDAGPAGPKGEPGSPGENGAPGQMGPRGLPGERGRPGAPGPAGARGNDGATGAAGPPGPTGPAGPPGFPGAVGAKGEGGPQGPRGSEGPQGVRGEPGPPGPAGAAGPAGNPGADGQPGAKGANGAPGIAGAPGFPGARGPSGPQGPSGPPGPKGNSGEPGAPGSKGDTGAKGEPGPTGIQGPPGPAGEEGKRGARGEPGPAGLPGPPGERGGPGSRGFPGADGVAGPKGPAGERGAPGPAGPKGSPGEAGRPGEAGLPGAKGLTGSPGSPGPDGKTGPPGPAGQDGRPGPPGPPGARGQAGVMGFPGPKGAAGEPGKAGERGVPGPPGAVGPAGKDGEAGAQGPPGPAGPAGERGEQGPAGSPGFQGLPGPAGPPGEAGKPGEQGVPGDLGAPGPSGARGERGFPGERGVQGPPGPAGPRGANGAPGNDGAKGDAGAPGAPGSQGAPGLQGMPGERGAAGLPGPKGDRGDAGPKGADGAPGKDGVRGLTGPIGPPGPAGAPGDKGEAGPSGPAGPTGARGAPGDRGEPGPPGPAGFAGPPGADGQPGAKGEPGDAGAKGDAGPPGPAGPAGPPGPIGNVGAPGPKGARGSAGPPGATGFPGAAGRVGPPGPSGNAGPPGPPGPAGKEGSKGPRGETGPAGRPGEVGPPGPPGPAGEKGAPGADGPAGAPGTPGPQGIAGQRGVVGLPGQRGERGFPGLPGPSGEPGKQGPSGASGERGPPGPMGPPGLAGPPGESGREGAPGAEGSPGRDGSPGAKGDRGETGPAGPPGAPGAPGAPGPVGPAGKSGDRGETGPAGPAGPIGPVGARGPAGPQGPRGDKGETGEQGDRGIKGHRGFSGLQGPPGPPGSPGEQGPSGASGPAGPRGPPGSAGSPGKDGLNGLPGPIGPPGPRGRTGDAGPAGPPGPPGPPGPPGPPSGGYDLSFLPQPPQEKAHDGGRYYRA
T4 sequence (P02465 80-1117 limits assumed): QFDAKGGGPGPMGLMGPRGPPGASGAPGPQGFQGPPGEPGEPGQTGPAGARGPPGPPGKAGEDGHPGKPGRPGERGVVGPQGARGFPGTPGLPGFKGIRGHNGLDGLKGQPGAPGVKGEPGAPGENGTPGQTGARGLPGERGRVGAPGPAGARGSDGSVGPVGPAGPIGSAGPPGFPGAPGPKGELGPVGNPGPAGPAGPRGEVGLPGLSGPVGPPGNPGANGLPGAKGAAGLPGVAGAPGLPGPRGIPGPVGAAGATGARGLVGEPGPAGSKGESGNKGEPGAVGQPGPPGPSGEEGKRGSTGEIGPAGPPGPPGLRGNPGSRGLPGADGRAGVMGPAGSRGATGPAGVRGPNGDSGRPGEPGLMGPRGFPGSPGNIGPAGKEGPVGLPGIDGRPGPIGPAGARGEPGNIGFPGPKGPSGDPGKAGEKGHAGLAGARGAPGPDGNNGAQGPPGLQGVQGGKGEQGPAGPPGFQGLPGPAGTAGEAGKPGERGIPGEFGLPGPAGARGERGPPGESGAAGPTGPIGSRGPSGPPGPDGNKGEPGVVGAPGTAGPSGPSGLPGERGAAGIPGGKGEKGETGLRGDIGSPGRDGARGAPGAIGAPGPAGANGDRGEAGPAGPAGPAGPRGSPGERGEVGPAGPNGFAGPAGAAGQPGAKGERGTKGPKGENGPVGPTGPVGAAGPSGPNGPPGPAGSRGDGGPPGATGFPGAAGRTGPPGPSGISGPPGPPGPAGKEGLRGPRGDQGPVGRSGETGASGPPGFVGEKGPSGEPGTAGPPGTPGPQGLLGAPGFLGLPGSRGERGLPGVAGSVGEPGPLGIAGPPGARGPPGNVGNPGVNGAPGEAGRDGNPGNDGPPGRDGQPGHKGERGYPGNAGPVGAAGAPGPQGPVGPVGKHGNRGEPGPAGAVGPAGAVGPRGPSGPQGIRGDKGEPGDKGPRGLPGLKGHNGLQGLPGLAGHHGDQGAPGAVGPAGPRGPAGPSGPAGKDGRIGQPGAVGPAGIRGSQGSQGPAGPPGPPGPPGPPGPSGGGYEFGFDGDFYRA
Kind of data set: Cryo-SEM measurements on collagen I, fibril diameter. The format is biochemical. The note with it: 4 mg/mL collagen, 10:1 collagen:treatment, cryo-SEM 20,000×. The method, then: as §1
Gels for cryo-SEM were formed, as in EXAMPLE 16, directly on the SEM stage and incubated at 37° C. overnight. The stages were then secured in a cryo-holder and plunged into liquid nitrogen slush. Samples were then transferred to a Gatan Alto 2500 pre-chamber cooled to −170° C. under vacuum. A free-break surface was created with a cooled scalpel, and each sample evaporated under sublimation conditions for 20 min. The sample was coated by platinum sputter coating for 120 s. Samples were transferred to the cryo-stage at −130° C. and regions with similar orientation were imaged for comparison across treatments. Analysis of the images was performed to determine the fibril diameter distribution, presented in histograms adjacent the corresponding image in FIG. 14, and average fibril diameter, FIG. 17 an 18;. Fibril diameter was calculated using ImageJ software (NIH) measuring individual fibrils by hand (drawing a line across fibrils and measuring its length after properly setting the scale). At least 45 independent fibril measurement were recorded for average fibril diameter calculations.

Data set [2] concerns Human coronary artery smooth muscle cells (HCA SMC). Kind of data set: Gel compaction by smooth muscle cells in collagen gels. The format is cell-based. The note with it: Days 3 and 5. How it is done:
Human coronary artery smooth muscle cells (HCA SMC) (Cascade Biologics) were cultured in growth medium (Medium 231 supplemented with smooth muscle growth factor). Cells from passage 3 were used for all experiments. Differentiation medium (Medium 231 supplemented with 1% FBS and 1× pen/strep) was used for all experiments unless otherwise noted.
Collagen gels were prepared with each additive as described with the exception that the 1×PBS example addition was omitted to accommodate the addition of cells in media. After incubating on ice for 30 min, HCA SMCs in differentiation medium were added to the gel solutions to a final concentration of 1×10^6 cells/mL. Gels were formed in quadruplicate in 48-well non-tissue culture treated plates (Costar) for 6 hrs before adding 500 μL/well differentiation medium. Gels were freed from the well edges after 24 hrs. Medium was changed every 2-3 days and images for compaction were taken at the same time points using a Gel Doc System (Bio-Rad). The cross-sectional area of circular gels correlating to degree of compaction was determined using ImageJ software (NIH). Gels containing no cells were used as a negative control and cells in collagen gels absent additive were used as a positive control. […] By day 10 all gels had compacted to approximately 10% of the original gel area, and differences between additives were small.

Another data set deals with Human dermal fibroblasts. Description: TGF-β1 production by human dermal fibroblasts (ELISA). It counts as cell-based. Conditions: 1.4 μM treatment, 48 hours. The method, then: Human dermal fibroblasts (Cascade Biologics) were seeded onto 96-well tissue culture polystyrene plates at a seeding density of 1.83×10^3 cells/well. Cells adhered overnight and cell medium was aspirated. 100 μL/well of cell medium containing a final concentration of 1.4 μM treatment delivered from a concentrated solution of treatment in 1×PBS was added to the cells. After 48 hours, cell medium was removed and frozen at −80 C until further testing. TGF-β1 was measured by ELISA using a kit and protocol from R&D Systems.
A general note: In an ELISA, binding on a coated surface is turned into a signal by an enzyme label.

Ends that are not written are not given here.

T1 sequence (P02453 162-1217 limits assumed): as the sequence (P02453 162-1217 limits assumed) above
T1 sequence (P02465 80-1117 limits assumed): as the sequence (P02465 80-1117 limits assumed) above

With SYIRIADTNITGC [Dc13], the effect on fibrillogenesis entry in the data set with collagen was “little effect on fibrillogenesis compared to collagen alone”. For the same molecule, the “collagen degradation measured by hydroxyproline content in cell medium” value in data set [1] is “greater collagen degradation compared to collagen alone”.

In the case of “DS-KELN: dermatan sulfate conjugated to KELN peptide KELNLVYTGC (also: dermatan sulfate conjugate, site not given here)”, the “viscoelastic properties of gels formed with collagen type III” value in the data set with collagen type III is “can influence the viscoelastic properties of gels formed with collagen type III”. For the same molecule, in the data set with collagen III, the void space result was “decrease void space (increase fibril diameter and branching)”.

With “DS-GSIT: dermatan sulfate conjugated to GSIT peptide GSITTIDVPWNVGC (also: dermatan sulfate conjugate, site not given here)”, the “viscoelastic properties of gels formed with collagen type III” value with collagen type III was “can influence the viscoelastic properties of gels formed with collagen type III”. Also, the void space result in the data set with collagen III is “decrease void space (increase fibril diameter and branching)”.

B1: decorin: proteoglycan known to influence collagen fibrillogenesis (protein, UniProt P07585 31-359, looked up)
Decorin: DEASGIGPEVPDDRDFEPSLGPVCPFRCQCHLRVVQCSDLGLDKVPKDLPPDTTLLDLQNNKITEIKDGDFKNLKNLHALILVNNKISKVSPGAFTPLVKLERLYLSKNQLKELPEKMPKTLQELRAHENEITKVRKVTFNGLNQMIVIELGTNPLKSSGIENGAFQGMKKLSYIRIADTNITSIPQGLPPSLTELHLDGNKISRVDAASLKGLNNLAKLGLSFNSISAVDNGSLANTPHLRELHLDNNKLTRVPGGLAEHKYIQVVYLHNNNISVVGSSDFCPPGHNTKKASYSGVSLFSNPVQYWEIQPSTFRCVYVRSAIQLGNYK
As for B1, in the data set with collagen I, the average fibril diameter result is given as “significant decrease in average fibril diameter”. The “gel compaction at early time points” value in data set [2] is reported as “significantly compacted more than gels made of collagen alone or collagen with dermatan sulfate”. Besides, in the data set with Human dermal fibroblasts, the “TGF-β1 in cell medium” value is on record as “significantly decreased TGF-β1”.
